{"source": "patent US20210253679A1", "about": "(NATIONAL RESEARCH COUNCIL OF CANADA, published 2021)", "binders": {"B1": {"name": "R11-H5 (VHH)", "VHH": "QVQLVESGGGLVQPGGSLRLSCAGPGFLLRSNTMGWYRQAPGKERELVAFIRPSGLTNYNDAVQGRFTISRDNSKNTLYLQMNSLRAEDTAVYYCHTRPPFQRDSWGQGTLVTVSS"}, "B2": {"name": "R11-H6 (VHH)", "VHH": "B1 VHH with S74A, L78V"}, "B3": {"name": "Rh46-H4 (VHH)", "VHH": "QVQLVESGGGLVQPGGSLRLSCAASTRTFSSYIMGWFRQAPGKERELVAAISWSGRMTHYADSVKGRFTISRDNSKNTLYLQMNSLRAEDTAIYSCAADRTTAWGAPRSQYDSWGQGTLVTVSS"}, "B4": {"name": "Rh46-H1 (VHH)", "VHH": "B3 VHH with Q1E, E44G, R45L, A49S, I93V, S95Y"}, "B5": {"name": "Rh46-H3 (VHH)", "VHH": "B3 VHH with I93V, S95Y"}, "B6": {"name": "Rh46-H5 (VHH)", "VHH": "B3 VHH with S75A, L79V"}, "B7": {"name": "Rh46-H2 (VHH)", "VHH": "EVQLVESGGGLVQPGGSLRLSCAASTRTFSSYIMGWFRQAPGKERELVSAISWSGRMTHYADSVKGRFTISRDNSKNTLYLQMNSLRAEDTAVYYCAADRTTAWGAPRSQYDSWGQGTLVTVS"}, "B8": {"name": "Rh34-H4 (VHH)", "VHH": "QVQLVESGGGLVQPGGSLRLSCAASGRTISLYAVGWFRRAPGKEREFVAAISWTDSSTYYADSVKGRFTISRDNSKNTLYLQMNSLRAEDTAVYYCAADVSIRGLQKYEYDYWGQGTLVTVSS"}, "B9": {"name": "Rh34-H1 (VHH)", "VHH": "B8 VHH with Q1E, R39Q, E44G, R45L, A49S"}, "B10": {"name": "Rh34-H3 (VHH)", "VHH": "B8 VHH with R39Q"}, "B11": {"name": "H18-H4 (VHH)", "VHH": "QVQLVESGGGLVQPGGSLRLSCAASGSIESINRMAWYRQAPGQQREFVARISKGGSTNYPDSVKGRFTISRDNSKNTLYLQMNSLRAEDTAVYYCAAGPVWEQFWGQGTLVTVSS"}, "B12": {"name": "H18-H5 (VHH)", "VHH": "B11 VHH with S74A, L78V"}, "B13": {"name": "H18-H1 (VHH)", "VHH": "B11 VHH with Q1E, Q43K, Q44G, R45L, A49S"}, "B14": {"name": "H18-H3 (VHH)", "VHH": "B11 VHH with Q43K"}, "B15": {"name": "Rh34-H2 (VHH)", "VHH": "EVQLVESGGGLVQPGGSLRLSCAASGRTISLYAVGWFRQAPGKEREFVSAISWTDSSTYYADSVKGRFTISRDNSKNTLYLQMNSLRAEDTAVYYCAADVSIRGLQKYEYDYWGQGTLVTVS"}, "B16": {"name": "Rh34-H5 (VHH)", "VHH": "B15 VHH with E1Q, Q39R, S49A, S75A, L79V"}, "B17": {"name": "M75-H4 (VHH)", "VHH": "QVQLVESGGGLVQPGGSLRLSCAASGRTFDNYVMAWFRQAPGKEREFVASISGSGSITNYANSVKDRFTISRDSSKNALYLQMNSLRAEDTAVYYCAAGSRRTYYREPKFYPSWGQGTLVTVSS"}, "B18": {"name": "M75-H5 (VHH)", "VHH": "B17 VHH with S75A, L79I"}, "B19": {"name": "M75-H2 (VHH)", "VHH": "B17 VHH with Q1E, A49S, S74N, A78T"}, "B20": {"name": "M75-H1 (VHH)", "VHH": "B17 VHH with Q1E, E44G, R45L, A49S, S74N, A78T"}, "B21": {"name": "M75-H3 (VHH)", "VHH": "B17 VHH with S74N, A78T"}, "B22": {"name": "R11-H1 (VHH)", "VHH": "B1 VHH with Q1E, G24A, P25S, E44G, R45L, A49S, H96A"}, "B23": {"name": "R11-H2 (VHH)", "VHH": "B1 VHH with Q1E, G24A, P25S, E44G, R45L, A49S"}}, "note": "Positions count from the first letter of the chain named.", "data": [{"target": "T1, rat serum albumin (rat, UniProt P02770 25-608)", "T1 construct": "also called RSA", "experiment": "SPR, single cycle kinetics, pH 5.5", "units": {"Kd": "nM"}, "values": [{"binder": "B1", "Kd": 160}, {"binder": "B2", "Kd": 123}]}, {"target": "T2, rhesus serum albumin (rhesus, UniProt Q28522 17-600)", "T2 construct": "also called RhSA", "experiment": "SPR, single cycle kinetics, pH 5.5", "units": {"Kd": "nM"}, "values": [{"binder": "B3", "Kd": 25.2}, {"binder": "B4", "Kd": 40.8}, {"binder": "B5", "Kd": 34}, {"binder": "B6", "Kd": 24.1}, {"binder": "B1", "Kd": 525}, {"binder": "B2", "Kd": 511}, {"binder": "B7", "Kd": 44.1}, {"binder": "B8", "Kd": 2250}, {"binder": "B9", "Kd": 1920}, {"binder": "B10", "Kd": 1810}, {"binder": "B11", "Kd": 72.7}, {"binder": "B12", "Kd": 70.7}, {"binder": "B13", "Kd": 92.2}, {"binder": "B14", "Kd": 57.6}, {"binder": "B15", "Kd": 3080}, {"binder": "B16", "Kd": 1420}]}, {"target": "T3, human serum albumin (human, UniProt P02768 25-609)", "T3 construct": "also called HSA", "experiment": "SPR, single cycle kinetics, pH 5.5", "units": {"Kd": "nM"}, "values": [{"binder": "B3", "Kd": 51.5}, {"binder": "B4", "Kd": 97.7}, {"binder": "B5", "Kd": 70.3}, {"binder": "B6", "Kd": 54.9}, {"binder": "B1", "Kd": 98.2}, {"binder": "B2", "Kd": 67.5}, {"binder": "B7", "Kd": 87.3}, {"binder": "B8", "Kd": 974}, {"binder": "B9", "Kd": 1560}, {"binder": "B10", "Kd": 2310}, {"binder": "B11", "Kd": 57.1}, {"binder": "B12", "Kd": 46.6}, {"binder": "B13", "Kd": 56.3}, {"binder": "B14", "Kd": 22.3}, {"binder": "B15", "Kd": 2320}, {"binder": "B16", "Kd": 524}]}, {"target": "T1, rat serum albumin", "experiment": "SPR, single cycle kinetics, pH 7.4", "units": {"Kd": "nM"}, "values": [{"binder": "B17", "Kd": 377}, {"binder": "B18", "Kd": 62.4}, {"binder": "B19", "Kd": 2490}, {"binder": "B20", "Kd": 659}, {"binder": "B21", "Kd": 1260}, {"binder": "B3", "binding result": "no binding"}, {"binder": "B4", "binding result": "no binding"}, {"binder": "B5", "binding result": "no binding"}, {"binder": "B6", "binding result": "no binding"}, {"binder": "B22", "binding result": "no binding"}, {"binder": "B1", "Kd": 196}, {"binder": "B23", "binding result": "no binding"}, {"binder": "B2", "Kd": 151}, {"binder": "B7", "binding result": "no binding"}, {"binder": "B8", "binding result": "no binding"}, {"binder": "B9", "binding result": "no binding"}, {"binder": "B10", "binding result": "no binding"}, {"binder": "B11", "binding result": "no binding"}, {"binder": "B12", "binding result": "no binding"}, {"binder": "B13", "binding result": "no binding"}, {"binder": "B14", "binding result": "no binding"}, {"binder": "B15", "binding result": "no binding"}, {"binder": "B16", "binding result": "no binding"}]}, {"target": "T2, rhesus serum albumin", "experiment": "SPR, single cycle kinetics, pH 7.4", "units": {"Kd": "nM"}, "values": [{"binder": "B17", "Kd": 6.7}, {"binder": "B18", "Kd": 4.6}, {"binder": "B19", "Kd": 63.6}, {"binder": "B20", "Kd": 6.1}, {"binder": "B21", "Kd": 17.7}, {"binder": "B3", "Kd": 405}, {"binder": "B4", "Kd": 707}, {"binder": "B5", "Kd": 415}, {"binder": "B6", "Kd": 343}, {"binder": "B22", "binding result": "no binding"}, {"binder": "B1", "Kd": 643}, {"binder": "B23", "binding result": "no binding"}, {"binder": "B2", "Kd": 561}, {"binder": "B7", "Kd": 456}, {"binder": "B8", "Kd": 739}, {"binder": "B9", "Kd": 1350}, {"binder": "B10", "Kd": 1260}, {"binder": "B11", "Kd": 34.4}, {"binder": "B12", "Kd": 91.7}, {"binder": "B13", "Kd": 91.5}, {"binder": "B14", "Kd": 38.2}, {"binder": "B15", "Kd": 1470}, {"binder": "B16", "Kd": 589}]}, {"target": "T3, human serum albumin", "experiment": "SPR, single cycle kinetics, pH 7.4", "units": {"Kd": "nM"}, "values": [{"binder": "B17", "Kd": 2.8}, {"binder": "B18", "Kd": 2.1}, {"binder": "B19", "Kd": 7.8}, {"binder": "B20", "Kd": 3.2}, {"binder": "B21", "Kd": 4.8}, {"binder": "B3", "Kd": 237}, {"binder": "B4", "Kd": 583}, {"binder": "B5", "Kd": 289}, {"binder": "B6", "Kd": 233}, {"binder": "B1", "Kd": 307}, {"binder": "B23", "binding result": "no binding"}, {"binder": "B2", "Kd": 252}, {"binder": "B7", "Kd": 426}, {"binder": "B8", "Kd": 647}, {"binder": "B9", "Kd": 824}, {"binder": "B10", "Kd": 1370}, {"binder": "B11", "Kd": 58.6}, {"binder": "B12", "Kd": 59.4}, {"binder": "B13", "Kd": 52.8}, {"binder": "B14", "Kd": 19.1}, {"binder": "B15", "Kd": 1330}, {"binder": "B16", "Kd": 410}]}]}
